Test results reported in US20260116921A1, “PEPTIDE INHIBITORS OF INTERLEUKIN-23 RECEPTOR AND THEIR USE TO TREAT INFLAMMATORY DISEASES” (priority 2018, published 2026).
Bridge positions count the residues as written; N and C are the ends. Square brackets hold non-standard residues; d marks the D form. Trp(7-Me) = Cc1cccc2c(C[C@H](N)C(=O)O)c[nH]c12; 2Nal = N[C@@H](Cc1ccc2ccccc2c1)C(=O)O; AEF = NCCOc1ccc(C[C@H](N)C(=O)O)cc1; Cit = NC(=O)NCCC[C@H](N)C(=O)O; Pen = CC(C)(S)[C@H](N)C(=O)O; αMeK = C[C@](N)(CCCCN)C(=O)O; Aib = CC(C)(N)C(=O)O; βAla = NCCC(=O)O

T1: IL-23R (human, UniProt Q5VWK5 24-629)
T1 sequence (looked up): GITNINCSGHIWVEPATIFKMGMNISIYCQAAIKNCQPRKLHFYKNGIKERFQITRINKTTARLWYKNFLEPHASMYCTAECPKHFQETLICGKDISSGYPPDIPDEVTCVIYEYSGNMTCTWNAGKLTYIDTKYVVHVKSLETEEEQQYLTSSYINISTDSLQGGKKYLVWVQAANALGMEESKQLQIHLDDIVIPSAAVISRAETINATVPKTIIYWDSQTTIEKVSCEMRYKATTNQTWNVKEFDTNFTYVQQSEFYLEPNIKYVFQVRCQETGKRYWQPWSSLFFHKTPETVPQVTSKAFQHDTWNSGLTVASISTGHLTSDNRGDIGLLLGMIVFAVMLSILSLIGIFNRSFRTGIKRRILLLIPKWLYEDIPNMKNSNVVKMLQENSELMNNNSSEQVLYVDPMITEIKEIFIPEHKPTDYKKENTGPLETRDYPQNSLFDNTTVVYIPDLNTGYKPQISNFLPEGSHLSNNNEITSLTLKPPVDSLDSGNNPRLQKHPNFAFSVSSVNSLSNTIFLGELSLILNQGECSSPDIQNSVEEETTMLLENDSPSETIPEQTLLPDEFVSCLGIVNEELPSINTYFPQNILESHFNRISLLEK

B1: SEQ ID NO: 221 (peptide)
peptide: XNTXQXXXXKSX
modifications: Ac-[Pen]-NT-[W(7-Me)]-Q-[Pen]-Phe[4-(2-aminoethoxy)]-[2-Nal]-[a-MeLeu]-[Lys(Ac)]-S-[bA]-NH2; Pen-Pen disulfide
B2: SEQ ID NO: 203 (peptide)
peptide: RXQTXQCXXXENX
modifications: Ac-[(D)Arg]-Abu-Q-T-[W(7-Me)]-Q-C-Phe[4-(2-aminoethoxy)]-[2-Nal]-[THP]-E-N-[bA]-NH2; Abu-Cys thioether
B3: SEQ ID NO: 214 (peptide)
peptide: XNTXQXXXXKHX
modifications: Ac-[Pen]-NT-[W(7-Me)]-Q-[Pen]-Phe[4-(2-aminoethoxy)]-[2-Nal]-[a-MeLeu]-[Lys(Ac)]-H-[bA]-NH2; Pen-Pen disulfide
B4: SEQ ID NO: 226 (peptide)
peptide: XNTXQXXXXKXX
modifications: Ac-[Pen]-NT-[W(7-Me)]-Q-[Pen]-Phe[4-(2-aminoethoxy)]-[2-Nal]-[a-MeLeu]-[Lys(Ac)]-[bA]-[bA]-NH2; Pen-Pen disulfide
B5: SEQ ID NO: 238 (peptide)
peptide: Ac-[Pen][Cit]T[Trp(7-Me)]Q[Pen][AEF][2Nal][αMeK]K(Ac)N[βAla]-NH2
modifications: disulfide 1-6
SMILES: CC(=O)NCCCC[C@H](NC(=O)[C@](C)(CCCCN)NC(=O)[C@H](Cc1ccc2ccccc2c1)NC(=O)[C@H](Cc1ccc(OCCN)cc1)NC(=O)[C@H]1NC(=O)[C@H](CCC(N)=O)NC(=O)[C@H](Cc2c[nH]c3c(C)cccc23)NC(=O)[C@H]([C@@H](C)O)NC(=O)[C@H](CCCNC(N)=O)NC(=O)[C@@H](NC(C)=O)C(C)(C)SSC1(C)C)C(=O)N[C@@H](CC(N)=O)C(=O)NCCC(N)=O
B6: SEQ ID NO: 232 (peptide)
peptide: XNTXQXXXXKNX
modifications: Ac-[Pen]-NT-[W(1-Me)]-Q-[Pen]-Phe[4-(2-aminoethoxy)]-[2-Nal]-[a-MeLys]-[Lys(Ac)]-N-[bA]-NH2; Pen-Pen disulfide
B7: SEQ ID NO: 208 (peptide)
peptide: XNTXQXXXXKLX
modifications: Ac-[Pen]-NT-[W(7-Me)]-Q-[Pen]-Phe[4-(2-aminoethoxy)]-[2-Nal]-[a-MeLeu]-[Lys(Ac)]-L-[bA]-NH2; Pen-Pen disulfide
B8: SEQ ID NO: 239 (peptide)
peptide: XKTXQXXXXKNX
modifications: Ac-[Pen]-[Lys(Ac)]-T-[W(7-Me)]-Q-[Pen]-Phe[4-(2-aminoethoxy)]-[2-Nal]-[a-MeLys]-[Lys(Ac)]-N-[bA]-NH2; Pen-Pen disulfide
B9: SEQ ID NO: 234 (peptide)
peptide: XNTXXXXXXKNX
modifications: Ac-[Pen]-NT-[W(7-Me)]-[a-MeLys]-[Pen]-Phe[4-(2-aminoethoxy)]-[2-Nal]-[a-MeLeu]-[Lys(Ac)]-N-[bA]-NH2; Pen-Pen disulfide
B10: SEQ ID NO: 236 (peptide)
peptide: XNTXQXXXXXNX
modifications: Ac-[Pen]-NT-[W(7-Me)]-Q-[Pen]-Phe[4-(2-aminoethoxy)]-[2-Nal]-[a-MeLys]-[Aib]-N-[bA]-NH2; Pen-Pen disulfide
B11: SEQ ID NO: 202 (peptide)
peptide: XNTXQXXXXKNX
modifications: Ac-[Pen]-NT-[W(7-Me)]-Q-[Pen]-Phe[4-(2-aminoethoxy)]-[2-Nal]-[a-MeLys]-[Lys(Ac)]-N-[bA]-NH2; Pen-Pen disulfide
B12: SEQ ID NO: 207 (peptide)
peptide: XNTXQXXXXKAX
modifications: Ac-[Pen]-NT-[W(7-Me)]-Q-[Pen]-Phe[4-(2-aminoethoxy)]-[2-Nal]-[a-MeLeu]-[Lys(Ac)]-A-[bA]-NH2; Pen-Pen disulfide
B13: SEQ ID NO: 211 (peptide)
peptide: XNTXQXXXXKPX
modifications: Ac-[Pen]-NT-[W(7-Me)]-Q-[Pen]-Phe[4-(2-aminoethoxy)]-[2-Nal]-[a-MeLeu]-[Lys(Ac)]-P-[bA]-NH2; Pen-Pen disulfide
B14: SEQ ID NO: 345 (peptide)
peptide: Ac-[Pen]NT[Trp(7-Me)][Cit][Pen][AEF][2Nal][αMeK]K(Ac)N[Aib][dR]-NH2
modifications: disulfide 1-6
SMILES: CC(=O)NCCCC[C@H](NC(=O)[C@](C)(CCCCN)NC(=O)[C@H](Cc1ccc2ccccc2c1)NC(=O)[C@H](Cc1ccc(OCCN)cc1)NC(=O)[C@H]1NC(=O)[C@H](CCCNC(N)=O)NC(=O)[C@H](Cc2c[nH]c3c(C)cccc23)NC(=O)[C@H]([C@@H](C)O)NC(=O)[C@H](CC(N)=O)NC(=O)[C@@H](NC(C)=O)C(C)(C)SSC1(C)C)C(=O)N[C@@H](CC(N)=O)C(=O)NC(C)(C)C(=O)N[C@H](CCCNC(=N)N)C(N)=O

Molecular target: T1, IL-23R
Assay: cell-based or functional assay

| NK Cell Assay (nM) IC50 | Binder |
| --- | --- |
| < 10 nM | B1 |
| < 10 nM | B2 |
| < 10 nM | B3 |
| < 10 nM | B4 |
| < 10 nM | B5 |
| < 10 nM | B6 |
| < 10 nM | B7 |
| < 10 nM | B8 |
| < 10 nM | B9 |
| < 10 nM | B10 |
| < 10 nM | B11 |
| < 10 nM | B12 |

Molecular target: T1, IL-23R
Assay: cell-based or functional assay
Remark: another data set of the same source

| pStat3 HTRF (nM) IC50 | Binder |
| --- | --- |
| > 100 nM | B13 |
| < 1 nM | B14 |
